# T1: SOS1 (Salt Overly Sensitive 1, plasma membrane Na+/H+ antiporter), Q9LKW9
# T1 chain: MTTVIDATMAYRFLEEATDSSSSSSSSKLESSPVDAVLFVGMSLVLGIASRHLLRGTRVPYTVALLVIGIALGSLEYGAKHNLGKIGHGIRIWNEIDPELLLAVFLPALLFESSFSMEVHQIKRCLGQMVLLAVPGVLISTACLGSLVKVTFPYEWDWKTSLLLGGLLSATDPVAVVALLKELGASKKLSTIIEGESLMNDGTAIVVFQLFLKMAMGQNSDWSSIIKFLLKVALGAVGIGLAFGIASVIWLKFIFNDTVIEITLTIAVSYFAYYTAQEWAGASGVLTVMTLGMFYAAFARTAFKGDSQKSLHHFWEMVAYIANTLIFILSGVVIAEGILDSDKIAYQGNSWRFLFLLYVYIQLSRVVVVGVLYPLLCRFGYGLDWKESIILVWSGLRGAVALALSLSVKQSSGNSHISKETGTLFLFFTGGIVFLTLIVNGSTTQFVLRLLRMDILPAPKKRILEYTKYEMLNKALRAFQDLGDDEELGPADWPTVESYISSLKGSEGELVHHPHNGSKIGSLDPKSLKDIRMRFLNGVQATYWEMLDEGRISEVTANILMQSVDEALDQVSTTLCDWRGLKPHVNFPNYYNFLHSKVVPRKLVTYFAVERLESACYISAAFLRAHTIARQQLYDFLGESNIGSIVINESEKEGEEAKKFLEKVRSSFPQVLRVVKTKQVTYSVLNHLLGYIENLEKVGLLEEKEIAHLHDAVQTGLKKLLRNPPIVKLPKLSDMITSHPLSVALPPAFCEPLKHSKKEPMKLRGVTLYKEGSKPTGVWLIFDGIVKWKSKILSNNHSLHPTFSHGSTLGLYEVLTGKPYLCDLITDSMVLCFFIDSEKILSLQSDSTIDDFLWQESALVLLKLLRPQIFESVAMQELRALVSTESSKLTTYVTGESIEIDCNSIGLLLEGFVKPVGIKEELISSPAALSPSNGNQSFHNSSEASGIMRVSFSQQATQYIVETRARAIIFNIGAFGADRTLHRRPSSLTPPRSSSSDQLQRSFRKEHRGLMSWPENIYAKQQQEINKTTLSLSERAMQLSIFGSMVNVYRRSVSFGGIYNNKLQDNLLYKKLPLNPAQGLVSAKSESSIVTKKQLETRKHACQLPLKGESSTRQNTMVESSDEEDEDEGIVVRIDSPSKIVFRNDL
# B1: T/DSOS2 (SOS2 protein kinase with the Thr168-to-Asp change in the activation loop) (protein)
# chain: MTKKMRRVGKYEVGRTIGEGTFAKVKFARNTDTGDNVAIKIMAKSTILKNRMVDQIKREISIMKIVRHPNIVRLYEVLASPSKIYIVLEFVTGGELFDRIVHKGRLEESESRKYFQQLVDAVAHCHCKGVYHRDLKPENLLLDTNGNLKVSDFGLSALPQEGVELLRDTCGTPNYVAPEVLSGQGYDGSAADIWSCGVILFVILAGYLPFSETDLPGLYRKINAAEFSCPPWFSAEVKFLIHRILDPNPKTRIQIQGIKKDPWFRLNYVPIRAREEEEVNLDDIRAVFDGIEGSYVAENVERNDEGPLMMNAFEMITLSQGLNLSALFDRRQDFVKRQTRFVSRREPSEIIANIEAVANSMGFKSHTRNFKTRLEGLSSIKAGQLAVVIEIYEVAPSLFMVDVRKAAGETLEYHKFYKKLCSKLENIIWRATEGIPKSEILRTITF
# Biological target: T1, SOS1 (Salt Overly Sensitive 1, plasma …)
protein,measurement,value
B1,"plasma membrane Na+/H+-exchange activity, maximum stimulation relative to activity without added protein (100 mM NaCl)",A maximum stimulation of activity of 40% relative to activity without added protein

# Reference: patent US20060168698
